Test results as given in patent US20040234530A1 (WISCONSIN ALUMNI RESEARCH FOUNDATION, published 2004).

Biological target: T1, StcE′ E435D-His (as StcE′-His with glutamic to aspartic acid at residue 435; from pTB5, strain WAM2804) (E. coli O157:H7 EDL933 (plasmid pO157), UniProt O82882 36-898)
T1 sequence: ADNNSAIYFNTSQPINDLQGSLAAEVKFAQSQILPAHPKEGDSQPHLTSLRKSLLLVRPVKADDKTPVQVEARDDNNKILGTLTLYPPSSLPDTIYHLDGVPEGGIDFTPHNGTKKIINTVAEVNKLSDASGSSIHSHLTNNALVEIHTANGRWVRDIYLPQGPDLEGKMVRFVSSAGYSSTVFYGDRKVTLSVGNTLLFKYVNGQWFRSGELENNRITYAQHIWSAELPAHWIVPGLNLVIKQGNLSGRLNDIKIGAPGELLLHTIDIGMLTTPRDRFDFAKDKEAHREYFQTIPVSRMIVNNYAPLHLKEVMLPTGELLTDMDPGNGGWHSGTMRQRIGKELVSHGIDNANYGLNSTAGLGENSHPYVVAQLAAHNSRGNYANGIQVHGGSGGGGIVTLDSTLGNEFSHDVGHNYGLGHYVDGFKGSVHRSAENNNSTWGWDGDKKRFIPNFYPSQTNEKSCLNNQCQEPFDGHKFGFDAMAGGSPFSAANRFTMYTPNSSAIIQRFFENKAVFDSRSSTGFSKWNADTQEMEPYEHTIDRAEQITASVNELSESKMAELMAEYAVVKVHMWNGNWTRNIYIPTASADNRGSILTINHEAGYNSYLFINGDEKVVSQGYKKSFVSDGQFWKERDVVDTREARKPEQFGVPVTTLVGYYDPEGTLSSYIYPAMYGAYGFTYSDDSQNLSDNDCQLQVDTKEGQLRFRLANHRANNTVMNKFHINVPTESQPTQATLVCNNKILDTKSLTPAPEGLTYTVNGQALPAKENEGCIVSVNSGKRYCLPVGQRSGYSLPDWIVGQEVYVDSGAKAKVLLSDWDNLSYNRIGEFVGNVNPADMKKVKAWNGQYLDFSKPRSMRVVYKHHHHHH

B1: C1-esterase inhibitor (human plasma protease C1 inhibitor), purified or in human serum (other, UniProt P05155 23-500, looked up)
chain: NPNATSSSSQDPESLQDRGEGKVATTVISKMLFVEPILEVSSLPTTNSTTNSATKITANTTDEPTTQPTTEPTTQPTIQPTQPTTQLPTDSPTQPTTGSFCPGPVTLCSDLESHSTEAVLGDALVDFSLKLYHAFSAMKKVETNMAFSPFSIASLLTQVLLGAGENTKTNLESILSYPKDFTCVHQALKGFTTKGVTSVSQIFHSPDLAIRDTFVNASRTLYSSSPRVLSNNSDANLELINTWVAKNTNNKISRLLDSLPSDTRLVLLNAIYLSAKWKTTFDPKKTRMEPFHFKNSVIKVPMMNSKKYPVAHFIDQTLKAKVGQLQLSHNLSLVILVPQNLKHRLEDMEQALSPSVFKAIMEKLEMSKFQPTLLTLPRIKVTTSQDMLSIMEKLEFFDFSYDLNLCGLTEDPDLQVSAMQHQTVLELTETGVEAAAASAISVARTLLVFEVQQPFLFVLWDQQHKFPVFMGRVYDPRA
modifications: heavily glycosylated N-terminal domain
For B1, the “fold level of C1-INH on erythrocyte surfaces against that in the presence of StcE′-His” value was 22 fold.
